Source: article PMC3237428

Molecular target: β-catenin (endogenous in HEK293 cells) (human (endogenous in HEK293)) (UniProt P35222)
Experiment: co-IP; reciprocal immunoprecipitation from stable HEK cell lysates with protein A/G agarose, anti-β-catenin antibody or rabbit antibody BsloC; western blot; 0.5% DDM

UniProt P35222, sequence (P35222 whole entry): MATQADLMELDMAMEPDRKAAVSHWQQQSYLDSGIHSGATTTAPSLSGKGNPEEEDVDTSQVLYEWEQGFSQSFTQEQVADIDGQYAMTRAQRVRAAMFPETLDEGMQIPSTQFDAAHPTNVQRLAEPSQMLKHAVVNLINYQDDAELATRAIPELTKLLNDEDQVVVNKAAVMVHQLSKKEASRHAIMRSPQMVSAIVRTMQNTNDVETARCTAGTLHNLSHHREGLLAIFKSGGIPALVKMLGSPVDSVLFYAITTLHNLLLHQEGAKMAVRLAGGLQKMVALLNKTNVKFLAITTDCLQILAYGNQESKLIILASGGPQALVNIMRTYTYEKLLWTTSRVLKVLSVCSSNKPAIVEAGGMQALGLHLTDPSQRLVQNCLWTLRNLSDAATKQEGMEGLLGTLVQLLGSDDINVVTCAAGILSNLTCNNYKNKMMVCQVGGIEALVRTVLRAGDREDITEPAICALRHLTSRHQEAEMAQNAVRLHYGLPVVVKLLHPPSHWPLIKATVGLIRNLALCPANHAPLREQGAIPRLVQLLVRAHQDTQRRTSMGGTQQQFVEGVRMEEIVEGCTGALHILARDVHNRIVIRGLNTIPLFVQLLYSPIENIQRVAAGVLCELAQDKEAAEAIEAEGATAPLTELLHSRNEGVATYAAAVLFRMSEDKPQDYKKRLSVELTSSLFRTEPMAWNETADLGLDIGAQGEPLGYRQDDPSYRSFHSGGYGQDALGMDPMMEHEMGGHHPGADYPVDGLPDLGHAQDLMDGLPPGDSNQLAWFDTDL

ratio of HSlo in β-catenin immunoprecipitates, wild type HSlo to HSloΔS10 (fold (wild type over HSloΔS10)): 4
Substance: HSloΔS10 (HSlo deletion construct lacking the S10 region) (natural protein)
